Results: patent publication US20070010430A1

Tests used:
[1] = molecular target: MMP-9; test: cell-based or functional assay
[2] = molecular target: MMP-2; test: cell-based or functional assay

decomposition-inhibition rate (type V collagen degradation, SDS-PAGE/western blot densitometry) [1]: 90%
decomposition-inhibition rate (type V collagen degradation, SDS-PAGE/western blot densitometry) [2]: 90%
Substance: shark cartilage extract obtained in Section (1) of Example 1 (water extract of blue shark cartilage, ethanol precipitate)
